Reference: article PMC6699511

B1: myosin regulatory light chain without His-tag (RLC), P97457 1-169 (natural protein)
chain: MPKCAKRRAGAEGSSNVFSMFDQTQIQEFKEAFTVIDQNRDGIIDKEDLRDTFAAMGRLNVKNEELDAMMKEASGPINFTVFLTMFGEKLKGADPEDVITGAFKVLDPEGKGTIKKQFLEELLTTQCDRFSQEEIKNMWAAFPPDVGGNVDYKNICYVITHGDAKDQE
modifications: not checked

Experiments:
[1] = molecular target: his-HCF[K919I, A933L], His-tagged myosin heavy chain fragment with coiled-coil stabilizing mutations (Mus musculus); test: SEC
[2] = molecular target: his-HCF, His-tagged myosin heavy chain fragment K810-E934 (Mus musculus); test: pull-down
[3] = molecular target: his-HCF[K919I, A933L], His-tagged myosin heavy chain fragment with coiled-coil stabilizing mutations (Mus musculus); test: pull-down

Row | stoichiometry N [1] | stoichiometry N (RLC per his-HCF) [2] | stoichiometry N (RLC per his-HCF[K919I, A933L]) [3] | Molecule
1 | 2 |  |  | his-HCF[K919I, A933L], His-tagged myosin heavy chain fragment with coiled-coil stabilizing mutations (domain or fragment)
2 |  | 1 | 1 | B1
